Test in all cases: other fluorescence titration; quenching of the tryptophan fluorescence of SET/TAF-Iβ polypeptides (0.2 to 4 μM; excitation 295 nm, emission 345 nm) on addition of histone; PBS, 25°C; non-linear regression; three repeats
Experiment [1] addresses SET/TAF-Iβ (1–277), GST removed (human) (UniProt Q01105).
The target of experiment [2] is SET/TAF-Iβ (110–277), GST removed (human) (UniProt Q01105).
The target in experiment [3] is SET/TAF-Iβ (1–210), GST removed (human) (UniProt Q01105).
Experiment [4] has as its target SET/TAF-Iβ (76–210), GST removed (human) (UniProt Q01105).
The target of experiment [5] is SET/TAF-Iβ (76–185), GST removed (human) (UniProt Q01105).

In general, Kd refers to the equilibrium constant for the complex coming apart. A high value points to a looser complex. “histone H2B (from UniProt P62808 1-126) (natural protein)” registered a Kd in experiment [1] of 2.87 µM.
As to “calf thymus histone H3 (from UniProt P68432 1-136) (natural protein)”, the Kd came out at 0.16 µM in experiment [2]; 0.15 µM in experiment [1]; 0.13 µM in experiment [3]; 0.14 µM in experiment [4]; 0.1 µM in experiment [5].

These data come from article PMC2676315.
